Laboratory results: patent US20250218531A1 (ABSCI, published 2025)
Residue numbers refer to the chain shown, from its start. “And” between values parts separate entries of the source, which are not always exact repeats. Identical values can stand only once.

B1: Trastuzumab HCDR3 variant VRYGGGYYYFDV (Fab, V domains shown)
VH: EVQLVESGGGLVQPGGSLRLSCAASGFNIKDTYIHWVRQAPGKGLEWVARIYPTNGYTRYADSVKGRFTISADTSKNTAYLQMNSLRAEDTAVYYCVRYGGGYYYFDVWGQGTLVTVSS
VL: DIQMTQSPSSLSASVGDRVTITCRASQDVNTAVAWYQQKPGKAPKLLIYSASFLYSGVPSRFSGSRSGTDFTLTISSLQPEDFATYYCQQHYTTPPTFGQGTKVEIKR
B2: Trastuzumab HCDR3 variant VTYGTTYYHFGS (Fab, V domains shown)
VH: B1 VH with R98T, G101T, G102T, Y105H, D107G, V108S
VL: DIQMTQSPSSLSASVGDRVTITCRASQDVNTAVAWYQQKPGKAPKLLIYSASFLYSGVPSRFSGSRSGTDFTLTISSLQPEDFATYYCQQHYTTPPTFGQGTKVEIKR
B3: Trastuzumab HCDR3 variant VRYGYGYYYMDY (Fab, V domains shown)
VH: B1 VH with G101Y, F106M, V108Y
VL: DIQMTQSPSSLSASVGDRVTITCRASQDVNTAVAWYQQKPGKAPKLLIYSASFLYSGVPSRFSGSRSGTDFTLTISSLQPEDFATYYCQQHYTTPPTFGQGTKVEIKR
B4: Trastuzumab HCDR3 variant VRYGYGYYYFDY (Fab, V domains shown)
VH: B1 VH with G101Y, V108Y
VL: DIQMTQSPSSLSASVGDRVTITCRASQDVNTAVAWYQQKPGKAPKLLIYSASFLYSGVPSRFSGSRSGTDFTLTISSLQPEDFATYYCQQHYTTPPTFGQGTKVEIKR
B5: Trastuzumab HCDR3 variant VRYGYDYYWFDY (Fab, V domains shown)
VH: B1 VH with G101Y, G102D, Y105W, V108Y
VL: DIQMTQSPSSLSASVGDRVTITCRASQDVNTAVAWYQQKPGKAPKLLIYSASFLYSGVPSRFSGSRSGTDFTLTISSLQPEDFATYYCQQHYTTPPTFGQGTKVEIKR
B6: Trastuzumab HCDR3 variant VRYGGTYYYFDY (Fab, V domains shown)
VH: B1 VH with G102T, V108Y
VL: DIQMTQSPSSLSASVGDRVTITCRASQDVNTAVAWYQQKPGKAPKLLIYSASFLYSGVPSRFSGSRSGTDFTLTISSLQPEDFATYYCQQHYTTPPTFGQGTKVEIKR
B7: Trastuzumab HCDR3 variant VRYGYGYYAMDY (Fab, V domains shown)
VH: B1 VH with G101Y, Y105A, F106M, V108Y
VL: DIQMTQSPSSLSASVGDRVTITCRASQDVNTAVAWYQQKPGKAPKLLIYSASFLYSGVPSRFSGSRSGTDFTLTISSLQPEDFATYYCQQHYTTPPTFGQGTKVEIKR
B8: Trastuzumab HCDR3 variant ARYGGYGGYYFDY (Fab, V domains shown)
VH: EVQLVESGGGLVQPGGSLRLSCAASGFNIKDTYIHWVRQAPGKGLEWVARIYPTNGYTRYADSVKGRFTISADTSKNTAYLQMNSLRAEDTAVYYCARYGGYGGYYFDYWGQGTLVTVSS
VL: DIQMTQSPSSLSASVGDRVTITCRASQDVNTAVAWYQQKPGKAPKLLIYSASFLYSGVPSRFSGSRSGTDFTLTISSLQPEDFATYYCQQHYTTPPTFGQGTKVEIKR
B9: Trastuzumab HCDR3 variant ARWGYDYYYYFDV (Fab, V domains shown)
VH: B8 VH with Y99W, G101Y, Y102D, G103Y, G104Y, Y109V
VL: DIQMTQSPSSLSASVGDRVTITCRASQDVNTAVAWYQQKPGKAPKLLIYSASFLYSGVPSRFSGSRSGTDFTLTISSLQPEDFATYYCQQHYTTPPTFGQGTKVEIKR
B10: Trastuzumab HCDR3 variant AKYINAYSYAFFD (Fab, V domains shown)
VH: B8 VH with R98K, G100I, G101N, Y102A, G103Y, G104S, Y106A, D108F, Y109D
VL: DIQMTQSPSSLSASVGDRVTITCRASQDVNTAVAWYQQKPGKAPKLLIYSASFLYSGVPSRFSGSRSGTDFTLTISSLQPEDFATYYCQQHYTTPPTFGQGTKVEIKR
B11: Trastuzumab HCDR3 variant ARWGYYGNYYFDY (Fab, V domains shown)
VH: B8 VH with Y99W, G101Y, G104N
VL: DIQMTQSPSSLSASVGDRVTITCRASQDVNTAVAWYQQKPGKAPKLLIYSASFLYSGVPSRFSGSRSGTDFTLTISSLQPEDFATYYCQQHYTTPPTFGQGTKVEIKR
B12: Trastuzumab HCDR3 variant ARWRGDGGYYFDY (Fab, V domains shown)
VH: B8 VH with Y99W, G100R, Y102D
VL: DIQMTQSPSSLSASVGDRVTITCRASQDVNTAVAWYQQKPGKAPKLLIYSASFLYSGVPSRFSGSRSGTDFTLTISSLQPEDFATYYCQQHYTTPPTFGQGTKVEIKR
B13: Trastuzumab HCDR3 variant ARWGYGYSYYFDV (Fab, V domains shown)
VH: B8 VH with Y99W, G101Y, Y102G, G103Y, G104S, Y109V
VL: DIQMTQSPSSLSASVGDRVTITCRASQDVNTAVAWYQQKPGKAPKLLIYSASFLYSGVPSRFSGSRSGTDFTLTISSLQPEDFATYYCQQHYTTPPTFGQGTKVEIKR
B14: Trastuzumab HCDR3 variant AKYLGQEAYAYFS (Fab, V domains shown)
VH: B8 VH with R98K, G100L, Y102Q, G103E, G104A, Y106A, F107Y, D108F, Y109S
VL: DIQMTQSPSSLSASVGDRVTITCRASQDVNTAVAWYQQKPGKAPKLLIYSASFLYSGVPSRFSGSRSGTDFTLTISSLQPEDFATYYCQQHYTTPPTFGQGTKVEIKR
B15: Trastuzumab HCDR3 variant AATYGGLGDMSSI (Fab, V domains shown)
VH: B8 VH with R98A, Y99T, G100Y, Y102G, G103L, Y105D, Y106M, F107S, D108S, Y109I
VL: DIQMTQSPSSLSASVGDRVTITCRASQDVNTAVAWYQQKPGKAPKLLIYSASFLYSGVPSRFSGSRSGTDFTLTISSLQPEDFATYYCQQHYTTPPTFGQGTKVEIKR
B16: Trastuzumab HCDR3 variant ARWYGGGYYYMDY (Fab, V domains shown)
VH: B8 VH with Y99W, G100Y, Y102G, G104Y, F107M
VL: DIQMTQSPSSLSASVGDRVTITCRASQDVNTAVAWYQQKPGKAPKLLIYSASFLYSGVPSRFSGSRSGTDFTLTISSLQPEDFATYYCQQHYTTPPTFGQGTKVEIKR
B17: Trastuzumab HCDR3 variant AKYAYYGDFWGSV (Fab, V domains shown)
VH: B8 VH with R98K, G100A, G101Y, G104D, Y105F, Y106W, F107G, D108S, Y109V
VL: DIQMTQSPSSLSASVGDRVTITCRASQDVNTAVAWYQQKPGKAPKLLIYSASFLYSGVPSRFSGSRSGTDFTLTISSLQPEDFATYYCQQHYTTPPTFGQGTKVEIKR
B18: Trastuzumab HCDR3 variant ARWLGEGYYNFDY (Fab, V domains shown)
VH: B8 VH with Y99W, G100L, Y102E, G104Y, Y106N
VL: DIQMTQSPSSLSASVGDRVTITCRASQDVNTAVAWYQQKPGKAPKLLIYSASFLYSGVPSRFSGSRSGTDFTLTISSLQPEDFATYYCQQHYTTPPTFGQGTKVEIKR
B19: Trastuzumab HCDR3 variant ARWGYSGWYVMDY (Fab, V domains shown)
VH: B8 VH with Y99W, G101Y, Y102S, G104W, Y106V, F107M
VL: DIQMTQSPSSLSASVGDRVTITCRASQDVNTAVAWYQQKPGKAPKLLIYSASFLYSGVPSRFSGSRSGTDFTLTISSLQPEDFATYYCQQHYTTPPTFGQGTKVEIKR
B20: Trastuzumab HCDR3 variant AKYGGVGYYAMDY (Fab, V domains shown)
VH: B8 VH with R98K, Y102V, G104Y, Y106A, F107M
VL: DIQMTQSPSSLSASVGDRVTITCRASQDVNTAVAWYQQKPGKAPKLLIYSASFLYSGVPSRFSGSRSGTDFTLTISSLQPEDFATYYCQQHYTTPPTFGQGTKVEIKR
B21: Trastuzumab HCDR3 variant ARWGSIGYYAFDH (Fab, V domains shown)
VH: B8 VH with Y99W, G101S, Y102I, G104Y, Y106A, Y109H
VL: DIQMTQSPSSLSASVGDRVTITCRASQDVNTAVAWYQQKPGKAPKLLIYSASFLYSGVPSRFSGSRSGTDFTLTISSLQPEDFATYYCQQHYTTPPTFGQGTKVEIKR
B22: Trastuzumab HCDR3 variant ARWGEFGPYYFDY (Fab, V domains shown)
VH: B8 VH with Y99W, G101E, Y102F, G104P
VL: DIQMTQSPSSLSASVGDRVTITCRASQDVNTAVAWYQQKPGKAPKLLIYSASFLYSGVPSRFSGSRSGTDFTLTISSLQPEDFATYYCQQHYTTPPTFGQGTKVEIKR
B23: Trastuzumab HCDR3 variant ARWPFYGPYNYDY (Fab, V domains shown)
VH: B8 VH with Y99W, G100P, G101F, G104P, Y106N, F107Y
VL: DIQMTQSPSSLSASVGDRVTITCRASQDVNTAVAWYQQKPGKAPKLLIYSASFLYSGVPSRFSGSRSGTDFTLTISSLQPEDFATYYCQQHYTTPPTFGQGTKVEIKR
B24: Trastuzumab HCDR3 variant ARNYYDLYYYFDY (Fab, V domains shown)
VH: B8 VH with Y99N, G100Y, G101Y, Y102D, G103L, G104Y
VL: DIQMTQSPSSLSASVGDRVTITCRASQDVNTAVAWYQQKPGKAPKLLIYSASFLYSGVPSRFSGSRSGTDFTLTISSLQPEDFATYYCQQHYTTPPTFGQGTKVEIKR
B25: Trastuzumab HCDR3 variant ARYFYDYYYYFDF (Fab, V domains shown)
VH: B8 VH with G100F, G101Y, Y102D, G103Y, G104Y, Y109F
VL: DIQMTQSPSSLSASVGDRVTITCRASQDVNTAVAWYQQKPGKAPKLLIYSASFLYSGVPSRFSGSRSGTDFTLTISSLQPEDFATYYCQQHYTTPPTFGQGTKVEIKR
B26: Trastuzumab HCDR3 variant ARYGDGYYYYFAY (Fab, V domains shown)
VH: B8 VH with G101D, Y102G, G103Y, G104Y, D108A
VL: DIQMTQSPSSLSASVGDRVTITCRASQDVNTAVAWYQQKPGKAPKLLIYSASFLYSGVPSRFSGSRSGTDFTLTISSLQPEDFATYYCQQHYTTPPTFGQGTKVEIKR
B27: Trastuzumab HCDR3 variant ARENDGSPGSFEY (Fab, V domains shown)
VH: B8 VH with Y99E, G100N, G101D, Y102G, G103S, G104P, Y105G, Y106S, D108E
VL: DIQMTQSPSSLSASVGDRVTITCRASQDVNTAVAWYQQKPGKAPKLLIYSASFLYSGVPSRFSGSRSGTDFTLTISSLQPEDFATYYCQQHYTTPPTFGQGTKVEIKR
B28: Trastuzumab HCDR3 variant AKYGATGWYYFDY (Fab, V domains shown)
VH: B8 VH with R98K, G101A, Y102T, G104W
VL: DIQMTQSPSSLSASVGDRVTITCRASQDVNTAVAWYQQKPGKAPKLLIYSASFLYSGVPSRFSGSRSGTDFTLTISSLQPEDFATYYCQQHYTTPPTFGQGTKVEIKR
B29: Trastuzumab HCDR3 variant ARWYYYGRYYFDY (Fab, V domains shown)
VH: B8 VH with Y99W, G100Y, G101Y, G104R
VL: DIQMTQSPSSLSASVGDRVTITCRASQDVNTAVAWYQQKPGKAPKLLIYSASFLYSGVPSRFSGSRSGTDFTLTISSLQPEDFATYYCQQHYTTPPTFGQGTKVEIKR
B30: Trastuzumab HCDR3 variant ARWGYDYYYAMDY (Fab, V domains shown)
VH: B8 VH with Y99W, G101Y, Y102D, G103Y, G104Y, Y106A, F107M
VL: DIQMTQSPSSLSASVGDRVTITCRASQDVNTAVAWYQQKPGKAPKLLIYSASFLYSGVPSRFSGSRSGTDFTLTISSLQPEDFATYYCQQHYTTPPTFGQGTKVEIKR
B31: Trastuzumab HCDR3 variant ARWDSGGPYYFDS (Fab, V domains shown)
VH: B8 VH with Y99W, G100D, G101S, Y102G, G104P, Y109S
VL: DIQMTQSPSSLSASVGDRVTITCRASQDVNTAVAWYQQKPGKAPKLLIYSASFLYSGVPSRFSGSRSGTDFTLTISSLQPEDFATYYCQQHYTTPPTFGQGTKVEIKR
B32: Trastuzumab HCDR3 variant ARWTERGFYSFDI (Fab, V domains shown)
VH: B8 VH with Y99W, G100T, G101E, Y102R, G104F, Y106S, Y109I
VL: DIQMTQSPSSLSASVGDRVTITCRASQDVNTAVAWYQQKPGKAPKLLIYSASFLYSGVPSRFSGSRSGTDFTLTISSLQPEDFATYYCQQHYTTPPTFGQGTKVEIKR
B33: Trastuzumab HCDR3 variant ARWGGYGYYYMDV (Fab, V domains shown)
VH: B8 VH with Y99W, G104Y, F107M, Y109V
VL: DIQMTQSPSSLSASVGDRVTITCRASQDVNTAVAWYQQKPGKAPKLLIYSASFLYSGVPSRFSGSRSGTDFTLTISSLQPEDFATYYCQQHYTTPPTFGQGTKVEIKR
B34: Trastuzumab HCDR3 variant ARHFGVASYSFDY (Fab, V domains shown)
VH: B8 VH with Y99H, G100F, Y102V, G103A, G104S, Y106S
VL: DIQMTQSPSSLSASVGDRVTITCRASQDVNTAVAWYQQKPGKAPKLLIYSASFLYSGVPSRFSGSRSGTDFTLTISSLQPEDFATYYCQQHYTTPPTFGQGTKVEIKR
B35: Trastuzumab HCDR3 variant ARWYYYGGYYFDV (Fab, V domains shown)
VH: B8 VH with Y99W, G100Y, G101Y, Y109V
VL: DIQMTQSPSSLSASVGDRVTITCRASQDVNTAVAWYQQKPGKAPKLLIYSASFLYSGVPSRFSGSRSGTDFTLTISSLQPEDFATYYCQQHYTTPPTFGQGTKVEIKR
B36: Trastuzumab HCDR3 variant ARWGYGGYYYFDY (Fab, V domains shown)
VH: B8 VH with Y99W, G101Y, Y102G, G104Y
VL: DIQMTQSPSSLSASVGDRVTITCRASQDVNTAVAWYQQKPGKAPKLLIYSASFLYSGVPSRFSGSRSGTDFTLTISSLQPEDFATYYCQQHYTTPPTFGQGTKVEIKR
B37: Trastuzumab HCDR3 variant ARWPGYGSYYMDV (Fab, V domains shown)
VH: B8 VH with Y99W, G100P, G104S, F107M, Y109V
VL: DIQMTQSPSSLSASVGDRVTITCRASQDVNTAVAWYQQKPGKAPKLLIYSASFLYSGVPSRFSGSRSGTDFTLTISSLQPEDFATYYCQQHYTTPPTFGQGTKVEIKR
B38: Trastuzumab HCDR3 variant ARYGGGGRYYFDY (Fab, V domains shown)
VH: B8 VH with Y102G, G104R
VL: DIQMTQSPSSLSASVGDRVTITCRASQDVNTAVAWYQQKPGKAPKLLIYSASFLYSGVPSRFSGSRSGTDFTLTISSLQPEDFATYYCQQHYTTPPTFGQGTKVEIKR
B39: Trastuzumab HCDR3 variant ARWYYGYYYYFDV (Fab, V domains shown)
VH: B8 VH with Y99W, G100Y, G101Y, Y102G, G103Y, G104Y, Y109V
VL: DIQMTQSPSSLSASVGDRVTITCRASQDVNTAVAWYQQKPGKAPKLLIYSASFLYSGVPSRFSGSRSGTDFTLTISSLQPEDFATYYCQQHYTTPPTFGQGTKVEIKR
B40: Trastuzumab HCDR3 variant ARYDPYGFYHLDY (Fab, V domains shown)
VH: B8 VH with G100D, G101P, G104F, Y106H, F107L
VL: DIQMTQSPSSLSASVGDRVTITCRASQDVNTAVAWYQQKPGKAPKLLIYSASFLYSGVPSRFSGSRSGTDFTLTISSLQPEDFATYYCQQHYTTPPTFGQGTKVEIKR
B41: Trastuzumab HCDR3 variant ARWGGPGYYAFVW (Fab, V domains shown)
VH: B8 VH with Y99W, Y102P, G104Y, Y106A, D108V, Y109W
VL: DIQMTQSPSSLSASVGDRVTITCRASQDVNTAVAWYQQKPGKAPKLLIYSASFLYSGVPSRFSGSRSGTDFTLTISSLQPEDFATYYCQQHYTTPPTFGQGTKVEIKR
B42: Trastuzumab HCDR3 variant ARYAHYGPYYFDF (Fab, V domains shown)
VH: B8 VH with G100A, G101H, G104P, Y109F
VL: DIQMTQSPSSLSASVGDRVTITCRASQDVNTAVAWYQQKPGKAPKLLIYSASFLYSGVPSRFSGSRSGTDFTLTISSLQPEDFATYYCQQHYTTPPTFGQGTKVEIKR
B43: Trastuzumab HCDR3 variant ARWLGSGYYWFDY (Fab, V domains shown)
VH: B8 VH with Y99W, G100L, Y102S, G104Y, Y106W
VL: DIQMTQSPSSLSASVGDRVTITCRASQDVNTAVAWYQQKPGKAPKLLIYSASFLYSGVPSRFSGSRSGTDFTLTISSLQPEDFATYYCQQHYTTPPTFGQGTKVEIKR
B44: Trastuzumab HCDR3 variant ARYEAYGLYPFGY (Fab, V domains shown)
VH: B8 VH with G100E, G101A, G104L, Y106P, D108G
VL: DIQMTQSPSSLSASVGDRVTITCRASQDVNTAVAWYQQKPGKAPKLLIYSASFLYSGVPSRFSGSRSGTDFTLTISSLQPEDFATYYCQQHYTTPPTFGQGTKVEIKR
B45: Trastuzumab HCDR3 variant ARWLRALGYYMDY (Fab, V domains shown)
VH: B8 VH with Y99W, G100L, G101R, Y102A, G103L, F107M
VL: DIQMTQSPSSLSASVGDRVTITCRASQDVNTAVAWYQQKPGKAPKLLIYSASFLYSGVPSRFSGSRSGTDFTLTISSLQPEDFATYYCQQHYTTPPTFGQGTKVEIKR
B46: Trastuzumab HCDR3 variant ARWLAGYNYYFDV (Fab, V domains shown)
VH: B8 VH with Y99W, G100L, G101A, Y102G, G103Y, G104N, Y109V
VL: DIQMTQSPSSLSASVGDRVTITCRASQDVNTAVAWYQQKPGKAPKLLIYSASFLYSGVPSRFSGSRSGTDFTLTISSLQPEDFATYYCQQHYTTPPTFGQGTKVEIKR
B47: Trastuzumab HCDR3 variant ANDIYIQGYDLNR (Fab, V domains shown)
VH: B8 VH with R98N, Y99D, G100I, G101Y, Y102I, G103Q, Y106D, F107L, D108N, Y109R
VL: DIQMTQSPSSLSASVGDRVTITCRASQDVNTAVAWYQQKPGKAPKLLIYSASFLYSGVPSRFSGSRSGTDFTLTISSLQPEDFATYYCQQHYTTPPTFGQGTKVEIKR
B48: Trastuzumab HCDR3 variant ARWYYYGGYYFDY (Fab, V domains shown)
VH: B8 VH with Y99W, G100Y, G101Y
VL: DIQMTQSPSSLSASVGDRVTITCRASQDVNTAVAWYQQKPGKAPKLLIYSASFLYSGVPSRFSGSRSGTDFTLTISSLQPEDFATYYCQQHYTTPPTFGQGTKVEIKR
B49: Trastuzumab HCDR3 variant ARWWGGGAYYFDY (Fab, V domains shown)
VH: B8 VH with Y99W, G100W, Y102G, G104A
VL: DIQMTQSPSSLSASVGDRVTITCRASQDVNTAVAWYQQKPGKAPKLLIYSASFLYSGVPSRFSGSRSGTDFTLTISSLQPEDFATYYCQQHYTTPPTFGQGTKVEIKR
B50: Trastuzumab HCDR3 variant AKFAYYGPYHFDP (Fab, V domains shown)
VH: B8 VH with R98K, Y99F, G100A, G101Y, G104P, Y106H, Y109P
VL: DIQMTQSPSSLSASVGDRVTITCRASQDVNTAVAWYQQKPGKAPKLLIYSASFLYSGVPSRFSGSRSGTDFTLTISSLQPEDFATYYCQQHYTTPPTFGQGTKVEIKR
B51: Trastuzumab HCDR3 variant ARWYGYGGYYFDY (Fab, V domains shown)
VH: B8 VH with Y99W, G100Y
VL: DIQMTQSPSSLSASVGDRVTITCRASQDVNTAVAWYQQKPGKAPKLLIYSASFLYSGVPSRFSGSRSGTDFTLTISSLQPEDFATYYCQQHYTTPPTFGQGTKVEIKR

Target: T1, HER2 (human epidermal growth factor receptor 2) (human, UniProt P04626 23-629)
T1 construct: also called Antigen: HER2
Assay: SPR

Binder	Kd	log(KD (M))
B1	0.00396 µM	-8.4
B2	0.0241 µM	-7.62
B3	0.00548 µM	-8.26
B4	0.00277 µM	-8.56
B5	0.0104 µM	-7.98
B6	0.0154 µM	-7.81
B7	0.0107 µM	-7.97
B8	0.014 µM	-7.85
B9	0.0267 µM	-7.57
B10	0.017 µM and 0.0169 µM	-7.77
B11	0.0134 µM	-7.87
B12	0.0131 µM	-7.88
B13	0.0211 µM	-7.68
B14	0.0149 µM	-7.83
B15	0.027 µM	-7.57
B16	0.0118 µM	-7.93
B17	0.0175 µM	-7.76
B18	0.00342 µM	-8.47
B19	0.00693 µM	-8.16
B20	0.0252 µM	-7.6
B21	0.0205 µM	-7.69
B22	0.00924 µM	-8.03
B23	0.00264 µM	-8.58
B24	0.00841 µM	-8.08
B25	0.00711 µM	-8.15
B26	0.00731 µM	-8.14

Binder	Kd	log(KD (M))
B27	0.0231 µM	-7.64
B28	0.0141 µM	-7.85
B29	0.011 µM	-7.96
B30	0.0194 µM	-7.71
B31	0.0154 µM	-7.81
B32	0.00928 µM	-8.03
B33	0.00878 µM	-8.06
B34	0.0139 µM	-7.86
B35	0.0125 µM	-7.9
B36	0.0191 µM	-7.72
B37	0.00483 µM	-8.32
B38	0.0196 µM	-7.71
B39	0.00704 µM	-8.15
B40	0.0242 µM	-7.62
B41	0.00808 µM	-8.09
B42	0.0198 µM	-7.7
B43	0.0109 µM	-7.96
B44	0.00339 µM	-8.47
B45	0.0159 µM and 0.0158 µM	-7.8
B46	0.0157 µM	-7.8
B47	0.00399 µM	-8.4
B48	0.00829 µM	-8.08
B49	0.0149 µM	-7.83
B50	0.0101 µM	-7.99
B51	0.00743 µM	-8.13
